From US7558625B2, “Combined micro-channel generation and iontophoresis for transdermal delivery of pharmaceutical agents” (TransPharma Medical Ltd., priority 2004, dated 2009)

Experiments:
[1] = Transdermal delivery of hGH by ViaDerm and iontophoresis in anesthetized rats, serum hGH (Elisa); type: in vivo; conditions: for Serum hGH levels: ViaDerm, Avg.; for AUC: serum hGH, 1.5 mg hGH patch
Description: Two groups of rats were tested. […] One group was connected to a power supply (constructed in house) and the other was not. The hGH loaded patch was connected to the negative pole of the power supply.
Rats (males, 300-325 gr, Sprague Dawley) were kept under anesthesia throughout the experiment. The following experimental groups were investigated: • Group 1—Passive delivery: 3 rats were treated with ViaDerm on two adjacent sites (total area 2.8 cm^2) over which the iontophoresis patch was placed. The reference electrode assembly was placed on a shaved intact skin on the back of the anal. The power supply was not turned on. • Group 2—Iontophoresis delivery: 3 rats were treated with ViaDerm on two adjacent sites (total area 2.8 cm^2) over which the iontophoresis patch was placed. The reference electrode assembly was placed on a shaved intact skin on the back of the animal. The power supply was turned on.
ViaDenm operating parameters: Burst length—700 μsec; Voltage—330V; Number of bursts—2; Two applications on the same skin area (150 pores/cm^2); Without current limitation; 80 μm diameter electrode arrays; Current density used: 0.18 mA/cm^2.
To detect hGH levels in serum—Elisa kit (DSL Inc. Webster, Tex., USA) was used.

[2] = Transdermal delivery of hGH by ViaDerm and iontophoresis in rats, high/low hGH dose vs SC; type: in vivo; set-up: hGH plasma levels: unit not given here; conditions: for hGH plasma levels: Avg.
Description: In the present experiment a power supply (parallel connection instead of serial) was used in order to improve the power supply.
Human GH solution was prepared from a 12 mg Genotropin vial (Genotropin®, Pharmacia and Upjohn). The levels of hGH in serum were analyzed using Elisa kit (DSL Inc. Webster Tex., USA). HPLC was used to quantitate SC solution.
ViaDerm operating parameters: Burst length—700 μsec; Voltage—330V; Number of bursts—2; 2 applications on the same skin area (150 micro-channels/cm^2); Two application sites (total area 2.8 cm^2); Without current limitation; 80 μm diameter electrode of the electrode arrays.
Iontophoresis application parameters: Current density 0.64 mA/cm^2 (total 1.8 mA). Current elevation time (from 0-max) 20 seconds. Current application time 8 hours.

[3] = ViaDerm + Iontophoresis off 15 mg
[4] = ViaDerm + Iontophoresis on 1.5 mg
[5] = ViaDerm + Iontophoresis on 15 mg

With “hGH: human growth hormone (Genotropin, Pharmacia and Upjohn)” the “AUC of ViaDerm and iontophoresis versus ViaDerm only (passive delivery)” value [1] was 3.5 fold, the “skin observation after removal of the iontophoretic patches” value ([1]; 0.18 mA/cm^2, end of experiment) was “burn marks were seen at the contact area of the electrode” and the “duration of hGH delivery” value ([1]; ViaDerm treated skin) was “more than 6 hours”. For the same substance, the “Serum hGH levels” value ([1]; Passive Patch 1.5 mg hGH, 0 h) was 0.1 ng/mL, the “Serum hGH levels” value ([1]; Passive Patch 1.5 mg hGH, 0.75 h) was 5.1 ng/mL and the “Serum hGH levels” value ([1]; Passive Patch 1.5 mg hGH, 1.5 h) was 14.0 ng/mL. The “Serum hGH levels” value ([1]; Passive Patch 1.5 mg hGH, 2.25 h) was 23.3 ng/mL, the “Serum hGH levels” value ([1]; Passive Patch 1.5 mg hGH, 3 h) was 40.8 ng/mL and the “Serum hGH levels” value ([1]; Passive Patch 1.5 mg hGH, 6 h) was 34.0 ng/mL. The “Serum hGH levels” value ([1]; Patch 1.5 mg hGH + Iontophoresis, 0 h) was 0.1 ng/mL, the “Serum hGH levels” value ([1]; Patch 1.5 mg hGH + Iontophoresis, 0.75 h) was 22.7 ng/mL and the “Serum hGH levels” value ([1]; Patch 1.5 mg hGH + Iontophoresis, 1.5 h) was 61.1 ng/mL. For the same substance, the “Serum hGH levels” value ([1]; Patch 1.5 mg hGH + Iontophoresis, 2.25 h) was 109.8 ng/mL, the “Serum hGH levels” value ([1]; Patch 1.5 mg hGH + Iontophoresis, 3 h) was 128.9 ng/mL and the “Serum hGH levels” value ([1]; Patch 1.5 mg hGH + Iontophoresis, 6 h) was 175.1 ng/mL. It also gave an AUC ([1]; ViaDerm and iontophoresis) of 637 ng·h/mL, an AUC ([1]; ViaDerm only (passive delivery)) of 182 ng·h/mL and a hGH plasma levels ([2]; 1.5 mg hGH, Iontoph. on, +VD, 0.0 hr) of 0.1. It also gave a hGH plasma levels ([2]; 1.5 mg hGH, Iontoph. on, +VD, 1.0 hr) of 225.1, a hGH plasma levels ([2]; 1.5 mg hGH, Iontoph. on, +VD, 2.0 hr) of 346.3 and a hGH plasma levels ([2]; 1.5 mg hGH, Iontoph. on, +VD, 3.0 hr) of 617.3. For the same substance, the hGH plasma levels ([2]; 1.5 mg hGH, Iontoph. on, +VD, 4.0 hr) was 444.5, the hGH plasma levels ([2]; 1.5 mg hGH, Iontoph. on, +VD, 6.0 hr) was 184.3 and the hGH plasma levels ([2]; 1.5 mg hGH, Iontoph. on, +VD, 8.0 hr) was 111.3. It also gave a hGH plasma levels ([2]; 15 mg hGH, Iontoph. off, +VD, 0.0 hr) of 0.1, a hGH plasma levels ([2]; 15 mg hGH, Iontoph. off, +VD, 1.0 hr) of 89.7 and a hGH plasma levels ([2]; 15 mg hGH, Iontoph. off, +VD, 2.0 hr) of 178.7. It also gave a hGH plasma levels ([2]; 15 mg hGH, Iontoph. off, +VD, 3.0 hr) of 283.7, a hGH plasma levels ([2]; 15 mg hGH, Iontoph. off, +VD, 4.0 hr) of 389.4 and a hGH plasma levels ([2]; 15 mg hGH, Iontoph. off, +VD, 6.0 hr) of 573.1. The hGH plasma levels ([2]; 15 mg hGH, Iontoph. off, +VD, 8.0 hr) was 873.4, the hGH plasma levels ([2]; 15 mg hGH, Iontoph. on, +VD, 0.0 hr) was 0.0 and the hGH plasma levels ([2]; 15 mg hGH, Iontoph. on, +VD, 1.0 hr) was 504.8. The hGH plasma levels ([2]; 15 mg hGH, Iontoph. on, +VD, 2.0 hr) was 958.5, the hGH plasma levels ([2]; 15 mg hGH, Iontoph. on, +VD, 3.0 hr) was 2011.6 and the hGH plasma levels ([2]; 15 mg hGH, Iontoph. on, +VD, 4.0 hr) was 2204.9. The hGH plasma levels ([2]; 15 mg hGH, Iontoph. on, +VD, 6.0 hr) was 1802.0, the hGH plasma levels ([2]; 15 mg hGH, Iontoph. on, +VD, 8.0 hr) was 1244.1 and the hGH plasma levels ([2]; 15 mg hGH, Iontoph. on, intact, 0.0 hr) was 0.1. It also gave a hGH plasma levels ([2]; 15 mg hGH, Iontoph. on, intact, 1.0 hr) of 1.9, a hGH plasma levels ([2]; 15 mg hGH, Iontoph. on, intact, 2.0 hr) of 7.2 and a hGH plasma levels ([2]; 15 mg hGH, Iontoph. on, intact, 3.0 hr) of 8.3. The hGH plasma levels ([2]; 15 mg hGH, Iontoph. on, intact, 4.0 hr) was 9.2, the hGH plasma levels ([2]; 15 mg hGH, Iontoph. on, intact, 6.0 hr) was 5.4 and the hGH plasma levels ([2]; 15 mg hGH, Iontoph. on, intact, 8.0 hr) was 4.7. The AUC ([2]; Intact + Iontophoresis 15 mg) was 47 ng·h/mL, the Bioavailability ([2]; Intact + Iontophoresis 15 mg) was 0.05% and the hGH plasma levels ([2]; S.C. 150 ug/0.2 ml hGH, 0.0 hr) was 0.1. For the same substance, the hGH plasma levels ([2]; S.C. 150 ug/0.2 ml hGH, 1.0 hr) was 153.0, the hGH plasma levels ([2]; S.C. 150 ug/0.2 ml hGH, 2.0 hr) was 156.8 and the hGH plasma levels ([2]; S.C. 150 ug/0.2 ml hGH, 3.0 hr) was 127.8. For the same substance, the hGH plasma levels ([2]; S.C. 150 ug/0.2 ml hGH, 4.0 hr) was 120.1, the hGH plasma levels ([2]; S.C. 150 ug/0.2 ml hGH, 6.0 hr) was 75.3 and the hGH plasma levels ([2]; S.C. 150 ug/0.2 ml hGH, 8.0 hr) was 43.4. It also gave an AUC ([2]; SC 150 ug) of 812 ng·h/mL, a Bioavailability ([2]; SC 150 ug (reference)) of 100% and an AUC [2, 3] of 3156 ng·h/mL. The Bioavailability [2, 3] was 3.9%, the AUC [2, 4] was 2336 ng·h/mL and the Bioavailability [2, 4] was 28.8%. The AUC [2, 5] was 11630 ng·h/mL, the Bioavailability [2, 5] was 14.3% and the “clinical observations at the site of the patch application” value ([2]; abdomen, current on 0.64 mA/cm^2 for 8 hours) was “Black burning marks (3rd degree burns)”. The “clinical observations at the site of the patch application” value ([2]; animals in which the power supply was off) was “No burn marks” and the “hGH delivery by iontophoresis alone” value ([2]; intact skin, 15 mg hGH) was “does not cause hGH delivery”.
